The text below walks through data of US20170086465A1 (TECHNION RESEARCH AND DEVELOPMENT FOUNDATION, published 2017).

The data set concerns the molecule itself. The data set is described as follows: cell-based or functional assay.

B1: C. elegans aff-1 fused to a C-terminal FLAG tag (AFF-1::FLAG) (other)
chain: RLRRHHRKRRFVSSNFDEFYCGESAHAQSQFEEERESNSSKVSSVHSTQFNWGLDNTICIKLQNVVHVLKYERLEQRYPIENSYTFSVPLIDTNCKCHCYGFGTNDVCNVEKYADDRNCTTSSEFPTCYTKYHPAVEPLDCPVTSIPAKACCDIKLKPRDGRMFRAVKLQQPINDMIISHSIFANNSGKMMKVLGPDEFRINLLKGKEQFELTEYHRISVQLVASSPQQQLREGMYYFPEENHNDLREGKINEITESDLDKLGWYRRVGNDWQVATSGLLLRNAHKVVIKNCKGQVHMDQFSGTKNFVLRGTQYNDTYNERRVSDNNFVRSVKVDESSREITIVHEHGTAAQVSLKTDTRPNLTKSQSLLANFTGSITLDHDGNRMLNVTFFGVKGTVHIKMYVNDRKLIATFACTAQFGTSLKDDGSRISLPSTINQAQWVCILPDEQPTKSEICKWIPYEEKAMRTPRQEQSWSKGHSPCSQAECNSLKSGVSDLFPWIMNFDYFMAHGGDFTEWLKIGIHIVIAVGLLLLLILLFTKCLVPLACCSLSIPFKNRNKKKKKKNSSDY
Take B1: the “infection of BHK-AFF-1 cells by VSVΔG-AFF-1 pseudovirus (GFP-expressing cells)” value was determined as 600 fold.
